Positions count from the first letter of the chain named.
T1: native bovine milk β-lactoglobulin (nBLG, Sigma) (bovine, UniProt P02754 17-178, biotinylated where immobilised on streptavidin wells or chips; the soluble competitor and the crystallised protein are not biotinylated)
T1 construct: also called native BLG; β-lactoglobulin AB dimer
T1 sequence: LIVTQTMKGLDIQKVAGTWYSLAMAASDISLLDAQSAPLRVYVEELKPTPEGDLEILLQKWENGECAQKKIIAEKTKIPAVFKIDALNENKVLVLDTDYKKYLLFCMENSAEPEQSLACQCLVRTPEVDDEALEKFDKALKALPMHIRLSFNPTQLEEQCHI

T2: rBLG-His6 (recombinant bovine β-lactoglobulin with C-terminal His6 tag) (bovine, UniProt P02754 17-178, biotinylated with Sulfo-NHS-LC-biotin (2 mol biotin : 1 mol protein) for immobilisation)
T2 construct: It was secreted to the E. coli periplasm through a pelB signal that is not part of the entry; also called recombinant BLG
T2 chain: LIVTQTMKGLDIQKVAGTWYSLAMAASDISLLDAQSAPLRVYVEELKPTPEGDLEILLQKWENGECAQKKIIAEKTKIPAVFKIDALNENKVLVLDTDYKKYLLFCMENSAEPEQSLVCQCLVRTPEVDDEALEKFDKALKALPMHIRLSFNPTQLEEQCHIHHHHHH

T3: rBLG-His6 T18Y (bovine, UniProt P02754 17-178, biotinylated with Sulfo-NHS-LC-biotin (2 mol biotin : 1 mol protein) for immobilisation)
T3 chain: T2 chain with T18Y

T4: rBLG-His6 T18Y/E45Y/L57Y (bovine, UniProt P02754 17-178, biotinylated with Sulfo-NHS-LC-biotin (2 mol biotin : 1 mol protein) for immobilisation)
T4 construct: also called Triple mutant; Triple
T4 chain: T2 chain with T18Y, E45Y, L57Y

B1: D1 IgE Fab (human anti-β-lactoglobulin Fab fragment with human IgG1 subtype, derived from the D1 scFv of a human IgE scFv phage library) (Fab, V domains shown)
VH: QVSLRESGGGLVQPGRSLRLSCTASGFTFRHHGMTWVRQAPGKGLEWVASLSGSGTKTHFADSVKGRFTISRDNSNNTLYLQMDNVRDEDTAIYYCAKAKRVGATGYFDLWGRGTLVTVSS
VL: DIVMTQSPSSLSASVGDRVTITCRASQGISSRLAWYQQKPGKAPKLLIYAASSLQSGVPSRFSGSGSGTEFTLTISSLQPEDFATYYCQQYHSYPWTFGQGTKVEIKR
notes: it was made in E. coli RV308 and purified on nickel; also called D1/Fab; Fab/D1

Legend:
[1] = target: T1, native bovine milk β-lactoglobulin …; assay: BIAcore SPR, biotinylated nBLG on streptavidin chip, D1 IgE Fab as analyte (1.1-138.9 nM)
Experimental: (§1) BIAcore analysis of the nBLG, rBLG-His6 and its mutants.
(§2) The biotinylated BLGs were immobilised in HBS buffer (10 mM Hepes, 0.15M NaCl, 3.4 mM EDTA, 0.005% BIAcore P20 surfactant, pH 7.4) and at a concentration of 1 μg/ml onto the streptavidin biosensor chip resulting in a surface of approximately 400-500 RU. The biotinylated nBLG was immobilised only with 200 RU onto the surface of the SA-chip.

[2] = target: T2, rBLG-His6 (recombinant bovine …); assay: BIAcore SPR, biotinylated rBLG-His6 on streptavidin chip, D1 IgE Fab as analyte (1.1-138.9 nM)
Experimental: as §1, §2

[3] = target: T3, rBLG-His6 T18Y; assay: BIAcore SPR, biotinylated rBLG-His6 T18Y on streptavidin chip, D1 IgE Fab as analyte (1.1-138.9 nM)
Experimental: as §1, §2

[4] = target: T4, rBLG-His6 T18Y/E45Y/L57Y; assay: ELISA: 1 µg biotinylated BLG on streptavidin wells, D1 IgE Fab, AFOS-conjugated goat anti-human kappa antibody, A405 after 20 min
Experimental: (§3) Biotinylated nBLG, rBLG-His6 or its mutants were immobilised on to the SA-microtitre wells.
(§4) After a 1-h incubation the wells were washed three times with PBS. The detection of the BLGs was carried out using AFOS-conjugated goat anti-human kappa antibody (Southern Biotech). Then p-nitrophenylphosphate substrate (Sigma) was added to the wells (2 mg/ml in diethanolamine buffer).

[5] = target: T5, bsa (Bos taurus (bovine), UniProt P02769); assay: ELISA: D1 IgE Fab on wells with bovine serum albumin, AFOS-conjugated goat anti-human kappa antibody, A405 after 20 min
T5 construct: also called bovine serum albumin
Experimental: as §3, §4

[6] = target: T1, native bovine milk β-lactoglobulin …; assay: competitive ELISA: biotinylated BLG AB dimer on streptavidin wells, KRVG peptide incubated with the immobilised BLG, wells washed or not washed, then D1 IgE Fab (the blocked ligand); AFOS-conjugated goat anti-human kappa antibody, A405
Experimental: In competitive ELISA the biotinylated AB dimer of BLG was immobilised onto streptavidin-coated microtitre wells. First the peptide (an inhibitor) was dissolved into 0.5% BSA-PBS and then different amounts of it were incubated with the immobilised BLG. After that the wells were either washed trice with PBS or not. […] The bound antibody was detected with AFOS-conjugated goat anti-human kappa antibody.

T5 sequence (P02769 25-607 limits assumed): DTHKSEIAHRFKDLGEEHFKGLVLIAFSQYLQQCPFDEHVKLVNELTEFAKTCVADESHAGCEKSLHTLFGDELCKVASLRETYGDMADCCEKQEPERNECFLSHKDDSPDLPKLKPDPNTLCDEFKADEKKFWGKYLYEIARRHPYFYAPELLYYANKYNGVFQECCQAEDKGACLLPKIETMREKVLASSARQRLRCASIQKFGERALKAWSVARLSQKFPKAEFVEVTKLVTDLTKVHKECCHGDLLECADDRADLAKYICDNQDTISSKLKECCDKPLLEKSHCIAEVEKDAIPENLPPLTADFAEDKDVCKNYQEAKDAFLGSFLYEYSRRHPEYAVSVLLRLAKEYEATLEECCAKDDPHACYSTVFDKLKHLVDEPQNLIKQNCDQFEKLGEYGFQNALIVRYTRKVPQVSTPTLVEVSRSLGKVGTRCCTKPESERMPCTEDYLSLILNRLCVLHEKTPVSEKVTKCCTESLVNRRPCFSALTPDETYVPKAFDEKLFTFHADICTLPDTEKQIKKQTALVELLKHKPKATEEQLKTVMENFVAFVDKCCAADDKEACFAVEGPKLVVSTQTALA

Row | Binder | Ka [1] [M⁻¹] | Kd [1] [nM] | koff [1] [s⁻¹] | kon [1] [M⁻¹ s⁻¹] | Ka [2] [M⁻¹] | Kd [2] [nM] | koff [2] [s⁻¹] | kon [2] [M⁻¹ s⁻¹] | Ka [3] [M⁻¹] | Kd [3] [nM] | koff [3] [s⁻¹] | kon [3] [M⁻¹ s⁻¹] | binding result [4] | binding result [5] | binding result [6]
1 | B1 | 3.7e+08 | 2.7 | 0.0048 | 1.8e+06 | 1.2e+08 | 8.5 | 0.0082 | 961000 | 1.6e+06 | 610 | 0.082 | 130000 | no binding (tested: 1:15000 dilution of 1.6 mg/ml) | no binding (tested: 1:15000 dilution of 1.6 mg/ml) | 
2 | KRVG [peptide KRVG (from the HCDR3 of D1 IgE Fab)] |  |  |  |  |  |  |  |  |  |  |  |  |  |  | binds
